Key:
[1] = biological target: HIV-1 myristoylated matrix (MA) T70R mutant protein (HIV-1 (pNL4-3 strain)); experiment: AUC; sedimentation equilibrium, 22,000, 26,000 and 30,000 rpm, 20 °C, pH 5.5, 50 mM sodium phosphates, 100 mM NaCl, 2 mM TCEP; global fit to a monomer–trimer equilibrium model (monomers to trimer), monomer mass 15.6 kDa and n = 3 fixed
[2] = biological target: HIV-1 myristoylated matrix (MA) Q63R mutant protein (HIV-1 (pNL4-3 strain)); experiment: as above
[3] = biological target: HIV-1 myristoylated matrix (MA) protein, wild type (HIV-1 (pNL4-3 strain)); experiment: as above
[4] = biological target: HIV-1 myristoylated matrix (MA) L75G mutant protein (HIV-1 (pNL4-3 strain)); experiment: as above
[5] = biological target: HIV-1 unmyristoylated matrix Q63R mutant protein (HIV-1 (pNL4-3 strain)); experiment: crystal structure; hanging-drop vapor diffusion, 40% PEG 400, 0.1 M sodium acetate (pH 4), 50 mM lithium sulfate; protein at 20 mg/ml; two crystal forms; molecular replacement with PDB 1HIW
[6] = biological target: HIV-1 myristoylated matrix (MA) A45E mutant protein (HIV-1 (pNL4-3 strain)); experiment: AUC; sedimentation equilibrium, 22,000, 26,000 and 30,000 rpm, 20 °C, pH 5.5, 50 mM sodium phosphates, 100 mM NaCl, 2 mM TCEP; global fit to a monomer–trimer equilibrium model (monomers to trimer), monomer mass 15.6 kDa and n = 3 fixed

HIV-1 myristoylated matrix (MA) T70R mutant protein (natural protein)
Ka [1]: 2.8e+07 M⁻¹ | stoichiometry N [1]: 3

HIV-1 myristoylated matrix (MA) Q63R mutant protein (natural protein)
Ka [2]: 2e+07 M⁻¹ | stoichiometry N [2]: 3

HIV-1 myristoylated matrix (MA) protein, wild type (natural protein)
Ka [3]: 2e+07 M⁻¹ | stoichiometry N [3]: 3

HIV-1 myristoylated matrix (MA) L75G mutant protein (natural protein)
Ka [4]: 1e+07 M⁻¹ | stoichiometry N [4]: 3

HIV-1 unmyristoylated matrix Q63R mutant protein (natural protein)
stoichiometry N [5]: 3

HIV-1 myristoylated matrix (MA) A45E mutant protein (natural protein)
Ka [6]: 2.5e+07 M⁻¹ | stoichiometry N [6]: 3

From paper PMC7952133
